Laboratory results reported in the RNAGym collection of RNA variant scans (doi:10.1021/acssynbio.7b00057).

B1: Pistol ribozyme (parent)
chain: GGGUCGUUGUUCCAUAAUCGCGUGGAUAUGGCACGCAAGUUUCUACCGGGCACCGUAAAUGUCCGACUGGAGCCGUUCGGGCGGCUAUAAACAGACCUCAGGCCCGAAGCGUGGCGGCACCUGCCGCCGGUGGUAAAAAAGAUCGGAAGAGCACACGUCU

Variants of: B1
Assay: aptazyme ON/OFF ratio, guanine; higher = stronger switching; co-transcriptional cleavage with and without guanine

In order of falling “aptazyme ON/OFF ratio” value:
1. U7G G9U U10C  3.94
2. U7G G9U U10A  3.84
3. U7G G9U U10A U11A  3.18
4. U7G G9C U10A U11G  3.08
5. U7G G9U U10A U11G  3.03
6. U7G G9C U10A U11A  2.95
7. U7G G9C U10C  2.77
8. U7G G9C U11A  2.57
9. U7G G9C U11C  2.53
10. U7G G9C U10G U11G  2.48
11. U7G G9U  2.19
12. U7G G9U U10C C12A  2.03
13. U7G G9C U11A C12A  1.94
14. U7G G9C U10G  1.89
15. U7G G9C U10A U11C C12A  1.76
16. U7G G9U U10A C12A C13U  1.75
17. U7G G9C U10A U11A C12G  1.7
18. U7G G9C U10G U11C C12A  1.69
19. U7G G9C U10A U11A C12U  1.65
20. U7G G9C U11A C12U  1.65
21. U7G G9C U11A C12G  1.65
22. U7G G9U U10A U11C C12A  1.56
23. U7G G9C U11A C12A C13U  1.52
24. U7G G9U U10C C12U  1.51
25. U7G G9U U10A U11C C12G  1.5
26. U7G G9C U11G  1.48
27. U7G G9U C12A C13A  1.46
28. U7G G9C U10A U11C C12U  1.46
29. U7G G9C U10A U11A C12A  1.46
30. U7G G9C U10A U11A C13U  1.45
31. U7G G9C U10A U11G C12U  1.43
32. U7G G9C U11G C12U  1.43
33. U7G G9C U11C C13A  1.42
34. U7G G9U U10C C12A C13A  1.42
35. U7G G9C U10A U11G C12G  1.41
36. U7G G9C U11G C12A  1.41
37. U7G G9C U10G C13A  1.41
38. U7G G9U U10A U11G C12U  1.4
39. U7G G9C U10A U11G C13U  1.4
40. U7G G9U U10A C12G C13U  1.4
41. U7G G9C U11C C13U  1.39
42. U7G G9U U10A U11C C12U C13U  1.39
43. U7G G9U U10A U11C C12U C13A  1.39
44. U7G G9U U10A U11A C13U  1.39
45. U7G G9U U10A C12A C13A  1.38
46. U7G G9C U10G U11A  1.37
47. U7G G9U U10C C12G  1.37
48. U7G G9C U11C C12U C13A  1.37
49. U7G G9C U11C C12G C13U  1.36
50. U7G G9C U10C C12A C13U  1.36
51. U7G G9C U10G C13U  1.36
52. U7G G9C U11C C12G C13A  1.35
53. U7G G9C U11A C12A C13A  1.35
54. U7G G9U U10C C12A C13U  1.35
55. U7G G9U U10A U11C C13A  1.35
56. U7G G9C U10C C12U C13U  1.34
57. U7G G9C U10A U11C C12U C13A  1.33
58. U7G G9C U10G U11C C12A C13U  1.33
59. U7G G9U C12A C13G  1.33
60. U7G G9U U10A U11C C12U  1.32
61. U7G G9C U10G U11C C12G  1.32
62. U7G G9C U10A U11A C13A  1.31
63. U7G G9C U10C U11A C12G C13U  1.31
64. U7G G9C U11G C12G  1.31
65. U7G G9C U10A U11C C12G C13U  1.29
66. U7G G9C U10G U11C C12U  1.28
67. U7G G9U U10A U11A C13A  1.28
68. U7G G9C U10G U11A C12G  1.28
69. U7G G9C U10G U11A C12U C13G  1.28
70. U7G G9C U10A U11A C12G C13U  1.27
71. U7G G9C U11A C12A C13G  1.27
72. U7G G9U U10A U11C C12U C13G  1.27
73. U7G G9C U10A U11C C12G  1.27
74. U7G G9C U10C U11G C13U  1.27
75. U7G G9U U10A U11G C12U C13U  1.27
76. U7G G9C U11C C12U C13G  1.27
77. U7G G9U U10A C12A C13G  1.26
78. U7G G9U U10A U11G C12G  1.26
79. U7G G9C U10G C12A C13U  1.25
80. U7G G9U U10A U11G C12G C13U  1.25
81. U7G G9C U10C U11A C13U  1.25
82. U7G G9C U10C U11A C12A C13U  1.25
83. U7G G9C U11C C12U C13U  1.25
84. U7G G9C U10G U11A C13U  1.24
85. U7G G9C U10C U11A C13A  1.24
86. U7G G9U U10A C12G C13G  1.24
87. U7G G9C U10G U11C C12A C13G  1.23
88. U7G G9C U10G C12A C13A  1.23
89. U7G G9U U10A U11G C12U C13A  1.23
90. U7G G9C U10G C13G  1.23
91. U7G G9C U10G U11A C12U C13U  1.23
92. U7G G9C U10C U11A C13G  1.22
93. U7G G9C U10A U11C C13A  1.21
94. U7G G9U U10C C12A C13G  1.21
95. U7G G9C U10C C12U C13G  1.21
96. U7G G9C U10C C12U C13A  1.21
97. U7G G9C U10C U11A C12A C13A  1.21
98. U7G G9C U10C U11A C12G C13G  1.2
99. U7G G9C U10A U11C C12U C13G  1.19
100. U7G G9C U10G U11C C12A C13A  1.19
101. U7G G9C U10C U11G C13A  1.19
102. U7G G9C U10G U11A C12U  1.19
103. U7G G9C U10A U11C C12U C13U  1.18
104. U7G G9C U10G U11A C13A  1.18
105. U7G G9U U10A U11A C13G  1.18
106. U7G G9C U10G U11A C12A  1.18
107. U7G G9U U10A U11C C13U  1.18
108. U7G G9C U10G U11C  1.17
109. U7G G9C U10A U11C  1.17
110. U7G G9U U10A U11C  1.17
111. U7G G9C U10C U11G C13G  1.17
112. U7G G9C U10G U11A C12A C13U  1.17
113. U7G G9C U10G U11A C12U C13A  1.17
114. U7G G9C U10A U11C C12G C13A  1.16
115. U7G G9C U10G U11A C13G  1.16
116. U7G G9C U10C C12A C13G  1.16
117. U7G G9C U10C C12A C13A  1.16
118. U7G G9C U10A U11A C12G C13G  1.15
119. U7G G9C U10A U11G C12A  1.15
120. U7G G9C U10C U11A C12A C13G  1.15
121. U7G G9C U10A U11A C12G C13A  1.14
122. U7G G9C U10A U11G C12A C13U  1.14
123. U7G G9U C12A C13U  1.14
124. U7G G9C U10A U11C C13U  1.14
125. U7G G9U U10A U11G C12G C13G  1.14
126. U7G G9C U10A U11G C13G  1.14
127. U7G G9U U10A U11G C12A  1.13
128. U7G G9C U10C U11G C12A C13G  1.13
129. U7G G9C U10G U11A C12A C13A  1.13
130. U7G G9C U10A U11G C13A  1.13
131. U7G G9C U10G U11G C12A C13G  1.13
132. U7G G9C U10C U11A C12G C13A  1.13
133. U7G G9U U10A U11G C12A C13U  1.12
134. U7G G9C U10G U11A C12A C13G  1.12
135. U7G G9C U10G U11G C12A C13U  1.12
136. U7G G9U U10A U11G C12U C13G  1.12
137. U7G G9U U10A U11C C13G  1.12
138. U7G G9U U10A U11G C12A C13A  1.11
139. U7G G9U U10A U11G C12A C13G  1.11
140. U7G G9C U10A U11G C12A C13G  1.11
141. U7G G9C U10A U11A C13G  1.11
142. U7G G9C U10G C12A C13G  1.11
143. U7G G9C U10G U11G C12A C13A  1.1
144. U7G G9C U10A U11C C13G  1.09
145. U7G G9C U10C U11G C12G C13A  1.09
146. U7G G9C U10C U11G C12A C13A  1.09
147. U7G G9C U10C U11C C12A C13G  1.09
148. U7G G9C U10A C12U C13A  1.09
149. U7G G9U U10A C12G C13A  1.09
150. U7G G9C U10C U11C C12G C13A  1.08
151. U7G G9C U10C U11G C12G C13G  1.08
152. U7G G9C U10C U11G C12G C13U  1.08
153. U7G G9C U10C U11G C12A C13U  1.08
154. U7G G9C U11C C12G C13G  1.07
155. U7G G9C U10A U11G C12A C13A  1.07
156. U7G G9C U10A C12U C13U  1.07
157. U7G G9C U10C U11C C12G C13U  1.06
158. U7G G9C U10A U11C C12G C13G  1.06
159. U7G G9C U11C C13G  1.06
160. U7G G9C U10C U11C C12G C13G  1.05
161. U7G G9C U10C U11C C13A  1.05
162. U7G G9C U10A C12U C13G  1.05
163. U7G G9C U10C U11C C13G  1.04
164. U7G G9U U10A U11G C12G C13A  1.04
165. U7G G9C U10C U11C C13U  1.03
166. U7G G9C U10C U11C C12A C13U  1.03
167. U7G G9C U10C U11C C12A C13A  1.02
